Laboratory results published in patent US20190135895A1 (published 2019).

Key:
[1] = target: truncated monomeric His-tagged human FcRn (human) (UniProt P55899); experiment: SPR (BIAcore 3000), hFcRn injected over immobilized HSA-GST variant, pH 6.0, 1:1 Langmuir model
WT HSA-GST = target: T1, WT HSA-GST (human, UniProt P08515 1-218 = GST); experiment: ELISA, mFcRn captured on rabbit IgG, pH 6.0
T1 construct: Secreted from HEK293E cells; also called WT-GST; WT HSA fusion

Chain of truncated monomeric His-tagged human FcRn (human) (P55899 24-297 limits assumed, chain 1 of 2): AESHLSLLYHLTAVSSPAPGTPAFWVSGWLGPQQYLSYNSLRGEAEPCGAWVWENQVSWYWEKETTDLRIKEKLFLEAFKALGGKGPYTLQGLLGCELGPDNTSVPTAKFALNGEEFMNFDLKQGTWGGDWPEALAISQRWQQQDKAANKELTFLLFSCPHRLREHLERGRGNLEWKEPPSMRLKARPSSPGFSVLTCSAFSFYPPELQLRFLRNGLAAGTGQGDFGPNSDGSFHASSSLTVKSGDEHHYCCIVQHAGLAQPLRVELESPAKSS
Chain of truncated monomeric His-tagged human FcRn (human) (chain, as listed by the source limits assumed, chain 2 of 2): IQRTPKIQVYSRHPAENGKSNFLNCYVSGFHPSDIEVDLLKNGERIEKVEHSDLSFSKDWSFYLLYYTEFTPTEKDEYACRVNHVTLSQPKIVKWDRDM

HSA E505Q-GST (from UniProt P08515 1-218)
Kd [1]: 23.1 nM

B1: truncated monomeric His-tagged mouse FcRn (receptor)
chain 1: SETRPPLMYHLTAVSNPSTGLPSFWATGWLGPQQYLTYNSLRQEADPCGAWMWENQVSWYWEKETTDLKSKEQLFLEALKTLEKILNGTYTLQGLLGCELASDNSSVPTAVFALNGEEFMKFNPRIGNWTGEWPETEIVANLWMKQPDAARKESEFLLNSCPERLLGHLERGRRNLEWKEPPSMRLKARPGNSGSSVLTCAAFSFYPPELKFRFLRNGLASGSGNCSTGPNGDGSFHAWSLLEVKRGDEHHYQCQVEHEGLAQPLTVDLDSSARSS
chain 2: IQKTPQIQVYSRHPPENGKPNILNCYVTQFHPPHIEIQMLKNGKKIPKVEMSDMSFSKDWSFYILAHTEFTPTETDTYACRVKHASMAEPKTVYWDRDM
notes: extracellular domain; Made in a Baculovirus system; also called mFcRn; soluble mFcRn; not shown: His tag
binding result (WT HSA-GST): no binding
